This note sets out measurements from patent US20030232412.

This data set addresses T1, His-tagged PprB.
T1 chain: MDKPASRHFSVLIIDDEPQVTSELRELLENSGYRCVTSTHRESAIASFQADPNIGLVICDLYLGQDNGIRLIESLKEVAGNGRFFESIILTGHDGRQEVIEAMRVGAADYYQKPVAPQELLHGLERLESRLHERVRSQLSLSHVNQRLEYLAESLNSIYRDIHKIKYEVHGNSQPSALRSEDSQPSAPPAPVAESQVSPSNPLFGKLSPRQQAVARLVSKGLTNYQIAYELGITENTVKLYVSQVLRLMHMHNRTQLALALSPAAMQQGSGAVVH

B1: His-tagged PprA (protein)
chain: MFEFSRSSSAEAERPEPFSQEGPALWSASLRSWDLCFEMDEQDRVIRVGGRQAYRLQCAHGLGEQPRPFAEYLERRAPGAPTLAGLRRGERLDLTLRSDAAAPLTCRFQPMQPLDGLGRSLLLGMDISDLNWQSDSQQHQLQSLSLGKLILSRLRHVSHGHLAEAVQEILESLSGAFQMQAIALLLGDGKGFCTVFASHVRPGSDSLLRPPLQLADDDLREGAGARLLRRGEGASTLLRQIGEDALYLVPATMRGGRLGALLVRPMSLEQLAQGPAPQDWQYLAELLANQVADRCELHEQHDSSRKLGLLQEMIGGGWWRYWAEQELFELAPALHDSLGLTGEYRRVPLEHLQGLLQPADADELGLRLRASLRSGQALAQDLCLRQPDSRGERRWLRIEGRPLGRGSALGLSGVLLDISEGRRQEERAQAAHARLRSLIDSAPVVIYVQRVEQGHLVPEFYSESASNLLGLDLQGQSWQALAERVHPDDLEAFFARGRELLREGRVKTRYRLADGQGNWHWLYDEAKLLRDAQGLPSEAVGLWLDVTEQHLAAQRIAESEERYRVLVEDSPALICRYTADLVLTYVNRTFADSLATSPERLVGRRLDEWLAAEDASALRARLLGSPREGASEVPELRFNLPGQRFLWLVWAERPLFDARGELCEVQAVGRDNTPVRRAQQQLAQGAKMASLGEMVSGLAHEVKQPLHVLRMTLFNMRQRMNSVGLDGDYLGEKLERMDAQVLRVDRLVSHLGVFSRKSALEALPFDPYAAFEGALGLLGEGLRQHAIEVECPAPTQRMVVRGQADQLEQVIINLLANARDALLGNPGLASRRVRLEQVACREPGWVELHVHDNGGGIEPLLLERIFEPFFTTKAEGKGTGLGLSVSHDLVRNMGGSLTAANQGEGALFVVRLPLAAPAEAGG
With B1, the “in vitro phosphorylation assay ([gamma-32P]ATP, SDS-PAGE, autoradiography)” value was “PprA was phosphorylated; PprB was not. Notably, however, when PprA was mixed with PprB, PprB became highly phosphorylated”.
